Reference: patent US12697350B2, “Methods and compositions for treating a premature termination codon-mediated disorder” (Tevard Biosciences, Inc., priority 2019, dated 2026)

Test system: EGFP-R96X-TGA
Experiment: Readthrough of suppressor tRNA delivered by AAV-PHP.eB, EGFP-R96X-TGA, 293 cells pre-transfected with LY6A (FIG. 41)
Type: cell-based, human
From the text: FIG. 40 is a schematic representation of constructs that were packaged into AAV-PHP.eB capsids. Construct 262 contains wild-type EGFP driven by an EF1a promoter. Construct 269 contains EGFP-R96X-TGA driven by an EF1a promoter (SEQ ID NO: 177) and two copies of the ArgTCA suppressor tRNA #115 (SEQ ID NO: 18) (“TCA-115”) in the context of 55 bps upstream flanking genomic DNA from tRNA-Tyr-GTA-5-1 (SEQ ID NO: 900). Both constructs contain 5′ and 3′ ITR sequences from AAV2, which provide cis-acting elements for AAV replication and packaging.
FIG. 41 depicts readthrough activity of suppressor tRNAs delivered by AAV. AAV-PHP.eB containing the constructs shown in FIG. 40 was produced by Vigene Biosciences. 48 hours prior to AAV transduction, 293 cells were pre-transfected with an expression construct containing the LY6A gene, which is required for robust transduction by AAV-PHP.eB. Cells were transduced at an MOI of 1E5 vg/cell. Where indicated, cells were also transfected with an expression construct containing the EGFP-R96X-TGA reporter (SEQ ID NO: 31) and an expression construct containing the ArgTCA suppressor tRNA #115 (SEQ ID NO: 18). At 72 hours post transduction, the EGFP signal was quantified by immunofluorescence. Live cell images were captured on an EVOS FL Auto 2 imaging system. […]

B1: tRNA-Arg-TCT-2-1-TCA-SUP_no intron (nucleic acid)
chain: GGCTCCGTGGCGCAATGGATAGCGCATTGGACTTCAAATTCAAAGGTTCCGGGTTCGAGTCCCGGCGGAGTCG
modifications: chemistry not fully specified
- readthrough activity, AAV delivery versus transient transfection (293 cells pre-transfected with LY6A): comparable readthrough activity when delivered by AAV or transient transfection
- PTC readthrough based on GFP intensity (AAV-PHP.eB with construct 269 (two copies of #115), MOI 1E5 vg/cell, 72 hours post transduction, normalized to construct 262 (wild-type EGFP)): ~ 13.2%
